Laboratory results as given in publication PMC3169591.

Tests used:
[1] = molecular target: Klebsiella pneumoniae PriB (full-length, 104-amino acid protein) (Klebsiella pneumoniae (strain MGH78578)); assay: SEC; each protein applied alone at approximately 3.4 g/l to a HiPrep HR 16/10 sephacryl S-100 column, 0.35 ml/min, 10 mM Tris-HCl pH 8, 10% glycerol, 0.5 M NaCl, 1 mM beta-mercaptoethanol; column calibrated with protein standards of known molecular weight
[2] = molecular target: PriB (Klebsiella pneumoniae MGH78578, UniProt A6THB2 1-104); assay: fluorescence anisotropy; apparent Kd; 1 mM Mg2+; 20 mM Tris-HCl pH 8, 50 mM NaCl, 4% glycerol, 1 mM MgCl2, 1 mM beta-mercaptoethanol, 0.1 mg/ml BSA, 1 nM DNA, 25 C; details: protein: recombinant; tags: N-terminal His6 (pET28b); chain copies: 2; label: 3'-fluorescein; single strand
Chain of PriB (A6THB2 whole entry): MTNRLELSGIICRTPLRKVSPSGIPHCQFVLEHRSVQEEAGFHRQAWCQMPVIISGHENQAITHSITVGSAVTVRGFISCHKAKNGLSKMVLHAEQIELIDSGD

Chain of Klebsiella pneumoniae PriB (full-length, 104-amino acid protein) (natural protein) (A6THB2 whole entry): as above

Row | Molecule | stoichiometry N [1] | Kd [2]
1 | Klebsiella pneumoniae PriB (full-length, 104-amino acid protein) (natural protein) | 2 | –
2 | GCCGTGATCACCAATGCAGATTGACGAACCTTTGCTCCAGTAACC (ssDNA) [45-mer] | – | 62 ± 14 nM
3 | GCGTGGGTAATTGTGCTTCAATGGACTGAC (ssDNA) [30-mer] | – | 45 ± 7 nM
4 | TAGCAATGTAATCGT (ssDNA) [15-mer] | – | 50 ± 3 nM
